Data as given in US20240245796A1 (PROFOUNDBIO US, published 2024).

Legend:
[1] = target: T1, human FOLR1 extracellular domain linked to His tag (human, UniProt P15328 25-233, limits assumed); assay: BLI, global 1:1 fit (125 nM row)
T1 construct: extracellular domain; It may be the same product as m13; also called Hu-FRα; Hu-Ag; not shown: His tag

[2] = target: T2, human FOLR2 extracellular domain linked to His tag (human, UniProt P14207 17-230, limits assumed); assay: BLI, global 1:1 fit (125 nM row)
T2 construct: extracellular domain; Antigen in solution in BLI; also called Hu-FRb; not shown: His tag
T2 sequence (P14207 17-230 limits assumed): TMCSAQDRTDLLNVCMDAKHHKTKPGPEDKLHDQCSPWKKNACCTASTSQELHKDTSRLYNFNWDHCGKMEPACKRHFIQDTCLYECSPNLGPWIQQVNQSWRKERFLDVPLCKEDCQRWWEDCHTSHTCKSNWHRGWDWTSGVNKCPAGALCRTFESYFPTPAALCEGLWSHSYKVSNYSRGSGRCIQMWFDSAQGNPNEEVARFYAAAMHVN

[3] = target: T1, human FOLR1 extracellular domain linked …; assay: BLI, global 1:1 fit (125 nM row); remark: listed apart in the source
[4] = target: T3, cynomolgus monkey FOLR1 extracellular domain linked to His tag (cynomolgus monkey, UniProt A0A2K5U044 25-233); assay: BLI, global 1:1 fit (125 nM row)
T3 construct: extracellular domain; Antigen in solution in BLI; It may be the same product as m14; also called Cyno-Ag; not shown: His tag
T3 sequence (A0A2K5U044 entry or part of it): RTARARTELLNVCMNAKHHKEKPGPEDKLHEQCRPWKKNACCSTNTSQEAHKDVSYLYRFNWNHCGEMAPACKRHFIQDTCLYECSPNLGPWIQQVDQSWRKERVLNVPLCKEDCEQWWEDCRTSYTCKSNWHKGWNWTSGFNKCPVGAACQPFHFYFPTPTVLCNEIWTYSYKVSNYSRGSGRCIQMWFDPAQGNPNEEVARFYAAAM

[5] = target: T1, human FOLR1 extracellular domain linked …; assay: BLI, global 1:1 fit (250 nM row)
[6] = target: T3, cynomolgus monkey FOLR1 extracellular …; assay: BLI, global 1:1 fit (250 nM row)
[7] = target: T1, human FOLR1 extracellular domain linked …; assay: BLI, global 1:1 fit (15.6 nM row)
[8] = target: T2, human FOLR2 extracellular domain linked …; assay: BLI, global 1:1 fit (15.6 nM row)
[9] = target: T1, human FOLR1 extracellular domain linked …; assay: BLI, Ag 250 nM over Ab on anti-hIgG Fc tip
[10] = target: T3, cynomolgus monkey FOLR1 extracellular …; assay: BLI, Ag 250 nM over Ab on anti-hIgG Fc tip
[11] = target: T1, human FOLR1 extracellular domain linked …; assay: BLI, Ag 15.6 nM over Ab on anti-hIgG Fc tip
[12] = target: T3, cynomolgus monkey FOLR1 extracellular …; assay: BLI, Ag 15.6 nM over Ab on anti-hIgG Fc tip
[13] = target: T1, human FOLR1 extracellular domain linked …; assay: BLI, Ag 62.5 nM over Ab on anti-hIgG Fc tip
[14] = target: T3, cynomolgus monkey FOLR1 extracellular …; assay: BLI, Ag 62.5 nM over Ab on anti-hIgG Fc tip
[15] = target: T2, human FOLR2 extracellular domain linked …; assay: BLI, Ag 15.6 nM; * = below range of quantification
[16] = target: T4, human FOLR3 extracellular domain linked to His tag (human, UniProt P41439 23-245, limits assumed); assay: BLI, Ag 15.6 nM; * = below range of quantification
T4 construct: extracellular domain; Antigen in solution in BLI; also called Hu-FRg; not shown: His tag
T4 sequence (P41439 23-245 limits assumed): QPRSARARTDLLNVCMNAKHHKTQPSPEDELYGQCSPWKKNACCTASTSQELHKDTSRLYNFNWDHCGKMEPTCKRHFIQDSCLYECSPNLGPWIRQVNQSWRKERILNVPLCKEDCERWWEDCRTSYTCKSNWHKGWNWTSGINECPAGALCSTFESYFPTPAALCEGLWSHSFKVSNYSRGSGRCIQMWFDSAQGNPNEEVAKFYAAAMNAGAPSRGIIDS

[17] = target: T2, human FOLR2 extracellular domain linked …; assay: BLI, Ag 31.3 nM; * = below range of quantification
[18] = target: T4, human FOLR3 extracellular domain linked …; assay: BLI, Ag 31.3 nM; * = below range of quantification
[19] = target: T5, rat FOLR1 extracellular domain linked to His tag (rat); assay: BLI, Ag 62.5 nM; * = below range of quantification
T5 construct: extracellular domain; Antigen in solution in BLI; also called Rat-Ag

[20] = target: T5, rat FOLR1 extracellular domain linked …; assay: BLI, global 1:1 fit (125 nM row); all responses below quantification
[21] = target: T5, rat FOLR1 extracellular domain linked …; assay: BLI, global 1:1 fit (250 nM row); all responses below quantification
[22] = target: T5, rat FOLR1 extracellular domain linked …; assay: BLI, global 1:1 fit (15.6 nM row); all responses below quantification
[23] = target: T5, rat FOLR1 extracellular domain linked …; assay: BLI, global 1:1 fit (62.5 nM row); all responses below quantification
[24] = target: T6, mouse FOLR1 extracellular domain linked to His tag (mouse, UniProt P35846 25-232, limits assumed); assay: BLI, global 1:1 fit (31.3 nM row); only the 500 nM response quantifiable
T6 construct: extracellular domain; Antigen in solution in BLI; also called Mouse-Ag; not shown: His tag
T6 sequence (P35846 25-232 limits assumed): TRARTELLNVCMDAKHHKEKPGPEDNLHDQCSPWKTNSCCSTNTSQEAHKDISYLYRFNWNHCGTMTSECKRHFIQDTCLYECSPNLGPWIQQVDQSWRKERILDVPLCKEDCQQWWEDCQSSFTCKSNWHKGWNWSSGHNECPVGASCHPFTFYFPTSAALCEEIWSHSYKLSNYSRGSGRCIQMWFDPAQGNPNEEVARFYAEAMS

T1 sequence (P15328 25-233 limits assumed): as the sequence (A0A2K5U044 entry or part of it) above, with T2I, R4W, K37R, P146A, Y171H counted along it

B1: F131 (antibody, V domains shown)
VH: EVQLLESGGGVVQPGRSLRLSCAASGFTFSSYGMHWVRQAPGKGLEWVAVISYDGSNKYYADSVKGRFTISRANSKNTLYLQMNSLRAEDTAVYYCARPRAYYGAYGSSFDYWGQGTQVTVSS
VL: EIVMTQSPSSVSASVGDRVAITCRASQGISSWLAWYQQKPGKAPKLLIYAASSLQSGVPSRFSGSGSGTDFTLTISSLQPEDFATYYCQQSYSTPLTFGGGTKVDIK
notes: also called clone F131; F131 mAb
[1]
  Kd: 5.3 nM
  koff: 0.0012 s⁻¹
  kon: 226000 M⁻¹ s⁻¹
[2]
  Kd: 142 nM
  koff: 0.0784 s⁻¹
  kon: 552000 M⁻¹ s⁻¹
[3]
  Kd: 1.53 nM
  koff: 0.000338 s⁻¹
  kon: 221000 M⁻¹ s⁻¹
[4]
  Kd: 8.15 nM
  koff: 0.00157 s⁻¹
  kon: 193000 M⁻¹ s⁻¹
[5]
  Kd: 1.53 nM
  koff: 0.000338 s⁻¹
  kon: 221000 M⁻¹ s⁻¹
[6]
  Kd: 8.15 nM
  koff: 0.00157 s⁻¹
  kon: 193000 M⁻¹ s⁻¹
[7]
  Kd: 5.3 nM
  koff: 0.0012 s⁻¹
  kon: 226000 M⁻¹ s⁻¹
[8]
  Kd: 142 nM
  koff: 0.0784 s⁻¹
  kon: 552000 M⁻¹ s⁻¹
[9]
  Response: 0.162
[10]
  Response: 0.209
[11]
  Response: 0.0503
[12]
  Response: 0.0485
[13]
  Response: 0.12
[14]
  Response: 0.14
[15]
  Response: 0.002
[16]
  Response: -0.00261
[17]
  Response: 0.0068
[18]
  Response: 0.0028
[19]
  Response: -0.00606
[20]
  koff: 1.03 s⁻¹
  kon: 5490 M⁻¹ s⁻¹
[21]
  koff: 1.03 s⁻¹
  kon: 5490 M⁻¹ s⁻¹
[22]
  koff: 1.03 s⁻¹
  kon: 5490 M⁻¹ s⁻¹
[23]
  koff: 1.03 s⁻¹
  kon: 5490 M⁻¹ s⁻¹
[24]
  Kd: 2960 nM
  koff: 0.301 s⁻¹
  kon: 102000 M⁻¹ s⁻¹

B2: F131-LD038 (antibody, V domains shown)
VH: EVQLLESGGGVVQPGRSLRLSCAASGFTFSSYGMHWVRQAPGKGLEWVAVISYDGSNKYYADSVKGRFTISRANSKNTLYLQMNSLRAEDTAVYYCARPRAYYGAYGSSFDYWGQGTQVTVSS
VL: EIVMTQSPSSVSASVGDRVAITCRASQGISSWLAWYQQKPGKAPKLLIYAASSLQSGVPSRFSGSGSGTDFTLTISSLQPEDFATYYCQQSYSTPLTFGGGTKVDIK
modifications: drug-linker LD038 (PB038, maleimide-PEG unit-Val-Cit-PAB-exatecan) on cysteines freed by TCEP reduction; positions not given
notes: Antibody-drug conjugate of F131 (IgG1) with LD038; also called anti-huFOLR-1 conjugate F131-LD038; F131-038
[1]
  Kd: 4.79 nM
  koff: 0.00121 s⁻¹
  kon: 252000 M⁻¹ s⁻¹
[2]
  Kd: 84.4 nM
  koff: 0.0813 s⁻¹
  kon: 963000 M⁻¹ s⁻¹
[3]
  Kd: 4.8 nM
  koff: 0.00107 s⁻¹
  kon: 224000 M⁻¹ s⁻¹
[4]
  Kd: 8.82 nM
  koff: 0.0016 s⁻¹
  kon: 181000 M⁻¹ s⁻¹
[5]
  Kd: 4.8 nM
  koff: 0.00107 s⁻¹
  kon: 224000 M⁻¹ s⁻¹
[6]
  Kd: 8.82 nM
  koff: 0.0016 s⁻¹
  kon: 181000 M⁻¹ s⁻¹
[7]
  Kd: 4.79 nM
  koff: 0.00121 s⁻¹
  kon: 252000 M⁻¹ s⁻¹
[8]
  Kd: 84.4 nM
  koff: 0.0813 s⁻¹
  kon: 963000 M⁻¹ s⁻¹
[9]
  Response: 0.184
[10]
  Response: 0.18
[11]
  Response: 0.0447
[12]
  Response: 0.0384
[13]
  Response: 0.129
[14]
  Response: 0.121
[15]
  Response: 0.0041
[16]
  Response: 0.0084
[17]
  Response: 0.0076
[18]
  Response: 0.0079
[19]
  Response: -0.00393
[20]
  koff: 0.224 s⁻¹
  kon: 2.64e+06 M⁻¹ s⁻¹
[21]
  koff: 0.224 s⁻¹
[22]
  koff: 0.224 s⁻¹
  kon: 2.64e+06 M⁻¹ s⁻¹
[23]
  koff: 0.224 s⁻¹
  kon: 2.64e+06 M⁻¹ s⁻¹
[24]
  Kd: 2870 nM
  koff: 0.266 s⁻¹
  kon: 92600 M⁻¹ s⁻¹
